How the values were obtained:
human L1CAM-hIgG1-Fc [1] = biological target: T1, human L1CAM-hIgG1-Fc (human, UniProt P32004 20-1120, limits assumed); assay: SPR, Biacore T200, 25 C, MBM captured by human Fab capture kit, KD=koff/kon (column head prints pM; text says molar units)
T1 construct: also called hL1CAM; not shown: human IgG1 Fc
Procedure: (§1) A human Fab capture kit (Cytiva P/N 28958325) is immobilized on a CM5 chip (Cytiva P/N 29104988) using standard NHS-EDC amine coupling on all four flow cells (Fc). Multispecific binding molecules (“MBM1” of Table 2, with or without conjugated siRNA (denoted by *) as described above) are prepared at 10 μg/mL by dilution into running buffer. Target (e.g., mouse TFR-mIgG1-Fc, mouse L1CAM-hIgG1-Fc and human L1CAM-hIgG1-Fc, respectively) are prepared at final concentrations of 100.0, 25.0, 6.25, 1.56, 0.39, 0.097, 0.024 and 0 (blank) nM by dilution into running buffer.
(§2) Each analysis cycle consists of (1) capturing multispecific binding molecule samples on separate flow cells (Fc2, Fc3 and Fc4); (2) injection of the respective concentration for the blood brain barrier target (e.g., TFR) over all Fc at 10 μL/min for 60 seconds followed by return to buffer flow for 1800 seconds to monitor dissociation phase; (3) injection of each human L1CAM concentration over all Fc at 100 μL/min for 120 seconds followed by return to buffer flow for 1200 seconds to monitor dissociation phase; (4) regeneration of chip surfaces with injection of 10 mM glycine, pH 1.5, for 30 seconds at 10 μL/min over all cells; and (5) equilibration of chip surfaces with a 10 μL (60-sec) injection of HBS-EP+. Data are processed using standard double-referencing and fit to a 1:1 binding model using Biacore T200 Evaluation software, version 2.0.3, to determine the association rate (kₒₙ, M⁻¹s⁻¹ units), dissociation rate (koff, s⁻¹ units), and Rₘₐₓ (RU units). The equilibrium dissociation constant (KD) is calculated from the relationship KD=koff/kₒₙ, and presented in molar units.

mouse L1CAM-hIgG1-Fc [2] = biological target: T2, mouse L1CAM-hIgG1-Fc (mouse; human, UniProt P11627 20-1123, limits assumed); assay: as above
T2 construct: also called mL1CAM; not shown: human IgG1 Fc
T2 sequence (P11627 20-1123 limits assumed): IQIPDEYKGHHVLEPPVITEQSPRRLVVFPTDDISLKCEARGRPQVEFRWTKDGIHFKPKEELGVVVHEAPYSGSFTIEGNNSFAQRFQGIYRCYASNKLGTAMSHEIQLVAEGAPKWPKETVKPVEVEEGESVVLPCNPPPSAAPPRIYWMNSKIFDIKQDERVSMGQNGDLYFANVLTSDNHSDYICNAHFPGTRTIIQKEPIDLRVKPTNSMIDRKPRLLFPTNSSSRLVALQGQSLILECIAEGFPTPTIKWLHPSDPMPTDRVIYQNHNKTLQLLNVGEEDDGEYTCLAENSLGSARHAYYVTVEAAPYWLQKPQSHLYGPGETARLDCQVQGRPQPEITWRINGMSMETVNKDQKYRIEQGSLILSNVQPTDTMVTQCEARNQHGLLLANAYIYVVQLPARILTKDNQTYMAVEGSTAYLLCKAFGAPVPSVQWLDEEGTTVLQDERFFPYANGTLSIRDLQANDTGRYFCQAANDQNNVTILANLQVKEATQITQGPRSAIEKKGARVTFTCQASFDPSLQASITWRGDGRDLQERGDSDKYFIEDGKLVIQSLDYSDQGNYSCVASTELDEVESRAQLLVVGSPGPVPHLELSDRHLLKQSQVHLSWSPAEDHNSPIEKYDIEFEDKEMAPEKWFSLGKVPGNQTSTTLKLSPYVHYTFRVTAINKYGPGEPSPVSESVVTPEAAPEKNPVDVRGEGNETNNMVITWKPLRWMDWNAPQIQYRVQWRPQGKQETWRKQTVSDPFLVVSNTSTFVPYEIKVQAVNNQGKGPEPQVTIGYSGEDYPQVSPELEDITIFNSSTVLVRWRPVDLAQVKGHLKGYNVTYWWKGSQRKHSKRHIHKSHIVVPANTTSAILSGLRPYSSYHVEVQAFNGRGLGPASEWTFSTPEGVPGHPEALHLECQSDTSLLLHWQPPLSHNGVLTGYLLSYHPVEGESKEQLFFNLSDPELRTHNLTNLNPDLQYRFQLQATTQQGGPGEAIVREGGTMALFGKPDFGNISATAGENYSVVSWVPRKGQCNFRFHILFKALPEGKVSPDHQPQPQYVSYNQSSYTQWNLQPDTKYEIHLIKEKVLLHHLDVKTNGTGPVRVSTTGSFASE
Procedure: as §1, §2

human L1CAM-hIgG1-Fc [3] = biological target: T1, human L1CAM-hIgG1-Fc; assay: SPR, Biacore T200, 25 C, MBM captured by human Fab capture kit, target as analyte, 1:1 fit (column head also prints '(10^-4)', not applied a second time)
Procedure: as §1, §2

mouse L1CAM-hIgG1-Fc [4] = biological target: T2, mouse L1CAM-hIgG1-Fc; assay: as above
Procedure: as §1, §2

human L1CAM-hIgG1-Fc [5] = biological target: T1, human L1CAM-hIgG1-Fc; assay: SPR, Biacore T200, 25 C, MBM captured by human Fab capture kit, target as analyte, 1:1 fit
Procedure: as §1, §2

mouse L1CAM-hIgG1-Fc [6] = biological target: T2, mouse L1CAM-hIgG1-Fc; assay: as above
Procedure: as §1, §2

T1 sequence (P32004 20-1120 limits assumed): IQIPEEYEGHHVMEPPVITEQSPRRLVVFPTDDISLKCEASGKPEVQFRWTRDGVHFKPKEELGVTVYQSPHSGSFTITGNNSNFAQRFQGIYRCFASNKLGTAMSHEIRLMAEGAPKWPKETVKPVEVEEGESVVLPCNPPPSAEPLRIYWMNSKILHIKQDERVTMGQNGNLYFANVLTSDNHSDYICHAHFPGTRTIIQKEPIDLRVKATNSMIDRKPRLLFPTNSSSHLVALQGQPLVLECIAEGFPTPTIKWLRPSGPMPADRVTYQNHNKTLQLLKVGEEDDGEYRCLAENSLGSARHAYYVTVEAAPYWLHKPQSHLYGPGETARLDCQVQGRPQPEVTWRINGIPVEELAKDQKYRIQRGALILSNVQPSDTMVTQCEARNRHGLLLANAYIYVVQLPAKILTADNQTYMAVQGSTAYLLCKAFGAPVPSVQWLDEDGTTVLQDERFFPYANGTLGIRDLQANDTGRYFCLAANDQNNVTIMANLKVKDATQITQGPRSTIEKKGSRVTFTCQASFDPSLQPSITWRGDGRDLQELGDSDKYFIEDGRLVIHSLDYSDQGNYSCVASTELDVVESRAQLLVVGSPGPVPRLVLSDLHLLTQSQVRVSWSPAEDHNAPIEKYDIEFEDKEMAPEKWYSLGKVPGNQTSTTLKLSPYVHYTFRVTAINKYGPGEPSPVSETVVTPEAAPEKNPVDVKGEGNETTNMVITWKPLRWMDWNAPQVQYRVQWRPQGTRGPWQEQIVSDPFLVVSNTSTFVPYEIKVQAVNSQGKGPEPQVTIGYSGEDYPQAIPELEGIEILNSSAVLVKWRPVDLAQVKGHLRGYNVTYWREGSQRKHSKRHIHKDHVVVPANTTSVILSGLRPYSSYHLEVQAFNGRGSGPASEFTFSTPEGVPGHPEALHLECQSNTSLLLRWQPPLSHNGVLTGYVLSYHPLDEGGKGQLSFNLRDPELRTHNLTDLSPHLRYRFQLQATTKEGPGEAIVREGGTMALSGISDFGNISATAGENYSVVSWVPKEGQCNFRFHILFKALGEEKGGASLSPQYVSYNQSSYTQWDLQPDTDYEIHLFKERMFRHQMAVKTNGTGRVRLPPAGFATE

Row | Kd (human L1CAM-hIgG1-Fc [1]) [pM] | Kd (mouse L1CAM-hIgG1-Fc [2]) [pM] | koff (human L1CAM-hIgG1-Fc [3]) [s⁻¹] | koff (mouse L1CAM-hIgG1-Fc [4]) [s⁻¹] | kon (human L1CAM-hIgG1-Fc [5]) [M⁻¹ s⁻¹] | kon (mouse L1CAM-hIgG1-Fc [6]) [M⁻¹ s⁻¹] | Binder
1 | 890 | 1200 | 0.00023 | 0.00027 | 260000 | 220000 | Exemplified multispecific binding molecule MBM1 with conjugated siRNA (MBM1*) (bispecific antibody, human IgG4 S228P, kappa, F234A L235A, conjugated siRNA (denoted by *); site not stated for the SPR sample; elsewhere 'siRNA linked at HC Constant region 1', Same four chains as MBM1, with siRNA conjugated) heavy 1: not shown light 1: ALDMTQTASPVSAAVGGTVTINCQSSQSVYNNNRLAWYQQKPGQPPKLLIYDASTLASGVPSRFKGSGSGTQFTLTISGVQSDDSATYYCQGTYFSSGWSWAFGGGTEVVVKRTVAAPSVFIFPPSDEQLKSGTASVVCLLNNFYPREAKVQWKVDNALQSGNSQESVTEQDSKDSTYSLSSTLTLSKADYEKHKVYACEVTHQGLSSPVTKSFNRGEC heavy 2: EVQLVESGGGVVQPGRSLRLSCAASGFTFSRFGMHWVRQAPGKGLEWVAFISNDGSNKYYADSVKGRFTISRDNSKNTLYLQMNSLRPEDTAVYYCARGRAYGSGSLFDPWGQGTLVTVSSASTKGPCVFPLAPCSRSTSESTAALGCLVKDYFPEPVTVSWNSGALTSGVHTFPAVLQSSGLYSLSSVVTVPSSSLGTKTYTCNVDHKPSNTKVDKRVESKYGPPCPPCPAPEAAGGPSVFLFPPKPKDTLMISRTPEVTCVVVDVSQEDPEVQFNWYVDGVEVHNAKTKPREEQFNSTYRVVSVLTVLHQDWLNGKEYKCKVSNKGLPSSIEKTISKAKGQPREPQVYTLPPSQEEMTKNQVSLTCLVKGFYPSDIAVEWESNGQPENNYKTTPPVLDSDGSFLLYSKLTVDKSRWQEGNVFSCSVMHEALHNHYTQKSLSLSLG light 2: DIQMTQSPSSLSASVGDRVTITCKASQGISRFLSWFQQKPGKAPKSLIYAVSSLVDGVPSRFSGSGSGTDFTLTISSLQPEDFATYYCVQYNSYPYGFGGGTKVEIKRTVAAPSVFIFPPSDEQLKSGTASVVCLLNNFYPREAKVQWKVDNALQSGNSQESVTEQDSKDSTYSLSSTLTLSKADYEKHKVYACEVTHQGLSSPVTKSFNRGEC
2 | 270 | 510 | 0.00011 | 0.0002 | 430000 | 400000 | Exemplified multispecific binding molecule MBM1 (heterodimeric IgG antibody, TFR arm and L1CAM arm) (bispecific antibody, without siRNA; also called BD1 + BD9) heavy 1: not shown light 1: ALDMTQTASPVSAAVGGTVTINCQSSQSVYNNNRLAWYQQKPGQPPKLLIYDASTLASGVPSRFKGSGSGTQFTLTISGVQSDDSATYYCQGTYFSSGWSWAFGGGTEVVVKRTVAAPSVFIFPPSDEQLKSGTASVVCLLNNFYPREAKVQWKVDNALQSGNSQESVTEQDSKDSTYSLSSTLTLSKADYEKHKVYACEVTHQGLSSPVTKSFNRGEC heavy 2: EVQLVESGGGVVQPGRSLRLSCAASGFTFSRFGMHWVRQAPGKGLEWVAFISNDGSNKYYADSVKGRFTISRDNSKNTLYLQMNSLRPEDTAVYYCARGRAYGSGSLFDPWGQGTLVTVSSASTKGPCVFPLAPCSRSTSESTAALGCLVKDYFPEPVTVSWNSGALTSGVHTFPAVLQSSGLYSLSSVVTVPSSSLGTKTYTCNVDHKPSNTKVDKRVESKYGPPCPPCPAPEAAGGPSVFLFPPKPKDTLMISRTPEVTCVVVDVSQEDPEVQFNWYVDGVEVHNAKTKPREEQFNSTYRVVSVLTVLHQDWLNGKEYKCKVSNKGLPSSIEKTISKAKGQPREPQVYTLPPSQEEMTKNQVSLTCLVKGFYPSDIAVEWESNGQPENNYKTTPPVLDSDGSFLLYSKLTVDKSRWQEGNVFSCSVMHEALHNHYTQKSLSLSLG light 2: DIQMTQSPSSLSASVGDRVTITCKASQGISRFLSWFQQKPGKAPKSLIYAVSSLVDGVPSRFSGSGSGTDFTLTISSLQPEDFATYYCVQYNSYPYGFGGGTKVEIKRTVAAPSVFIFPPSDEQLKSGTASVVCLLNNFYPREAKVQWKVDNALQSGNSQESVTEQDSKDSTYSLSSTLTLSKADYEKHKVYACEVTHQGLSSPVTKSFNRGEC

Source: US20250304709A1 (Eli Lilly, published 2025)
